One substance from paper PMC5372380 can be followed below.

The test has as its target BG505 SOSIP.664 trimer, His-tagged (HIV-1 isolate BG505). Nature of the test: SPR. (In general: Surface plasmon resonance follows binding to a sensor surface in real time, without labels.)

Consider ACS202 Fab, for which the stoichiometry N (mAb per trimer) came out at 3.
